The source of these data is US20130303393A1.

The target in assay [1] is NlpA-ZZ fusion protein. The experiment in a line: flow cytometry of NlpA-ZZ spheroplasts labeled with 5 nM FITC-conjugated Human IgG; residual fluorescence at Time 20 min.
Assay [2] has as its target NlpA-ZZ fusion protein. The experiment in a line: flow cytometry of NlpA-ZZ spheroplasts labeled with 5 nM FITC-conjugated Human IgG; residual fluorescence at Time 10 min.
Assay [3] concerns the target NlpA-ZZ fusion protein. Description: flow cytometry of spheroplasts expressing NlpA-ZZ, labeled with 50 nM FITC-conjugated Human IgG.
For assay [4], the target named is NlpA-ZZ fusion protein. The experiment in a line: flow cytometry of NlpA-ZZ spheroplasts labeled with 5 nM FITC-conjugated Human IgG; residual fluorescence at Time 120 min.
In assay [5] the target is NlpA-80R(scFv).
Assay [6] addresses NlpA-ZZ fusion protein. Description: flow cytometry of NlpA-ZZ spheroplasts labeled with 5 nM FITC-conjugated Human IgG; residual fluorescence at Time 240 min.
Assay [7] addresses NlpA-ZZ fusion protein. The experiment in a line: flow cytometry of NlpA-ZZ spheroplasts labeled with 5 nM FITC-conjugated Human IgG; residual fluorescence at Time 180 min.
Assay [8] deals with NlpA-ZZ fusion protein. Description: flow cytometry of NlpA-ZZ spheroplasts labeled with 5 nM FITC-conjugated Human IgG; residual fluorescence at Time 60 min.
Assay [9] deals with NlpA-ZZ fusion protein. Description: flow cytometry of NlpA-ZZ spheroplasts labeled with 5 nM FITC-conjugated Human IgG; residual fluorescence at Time 4320 min.
For assay [10], the target named is NlpA-ZZ fusion protein. The experiment in a line: flow cytometry of NlpA-ZZ spheroplasts labeled with 5 nM FITC-conjugated Human IgG; residual fluorescence at Time 30 min.
For assay [11], the target named is NlpA-ZZ fusion protein. The experiment in a line: flow cytometry of NlpA-ZZ spheroplasts labeled with 5 nM FITC-conjugated Human IgG; residual fluorescence at Time 0 min.
Assay [12] deals with NlpA-ZZ fusion protein. Description: flow cytometry of NlpA-ZZ spheroplasts labeled with 5 nM FITC-conjugated Human IgG; residual fluorescence at Time 1440 min.

In the case of “commercial Human IgG antibodies (FITC-conjugated) (antibody)”, the M (FL1-Height) stood at 143 in assay [1]; 150 in assay [2]; 2760 in assay [3]; 133 in assay [4]; 3 in [5]; 142 in assay [6]. The M (FL1-Height) amounted to 148 in [7]; 136 in assay [8]; 154 in assay [9]; 147 in assay [10]; 153 in assay [11]; 146 in assay [12].
